Test results taken from US20120122991A1, “METHOD FOR TREATING CANCER BY INCREASING AMP-ACTIVATED KINASE ACTIVITY” (Dana-Farber Cancer Institute, Inc., priority 2003, published 2012).

B1: wild-type LKB1: Flag-tagged wild-type LKB1 serine/threonine kinase immunoprecipitated from HT1080 cells (protein)
chain: MEVVDPQQLGMFTEGELMSVGMDTFIHRIDSTEVIYQPRRKRAKLIGKYLMGDLLGEGSYGKVKEVLDSETLCRRAVKILKKKKLRRIPNGEANVKKEIQLLRRLRHKNVIQLVDVLYNEEKQKMYMVMEYCVCGMQEMLDSVPEKRFPVCQAHGYFCQLIDGLEYLHSQGIVHKDIKPGNLLLTTGGTLKISDLGVAEALHPFAADDTCRTSQGSPAFQPPEIANGLDTFSGFKVDIWSAGVTLYNITTGLYPFEGDNIYKLFENIGKGSYAIPGDCGPPLSDLLKGMLEYEPAKRFSIRQIRQHSWFRKKHPPAEAPVPIPPSPDTKDRWRSMTVVPYLEDLHGADEDEDLFDIEDDIIYTQDFTVPGQVPEEEASHNGQRRGLPKAVCMNGTEAAQLSTKSRAEGRAPNPARKACSASSKIRRLSACKQQ
modifications: left off: small tags and cut ends
notes: Flag-tagged wild-type LKB1 serine/threonine kinase immunoprecipitated from HT1080 cells
B2: STRAD-activated LKB1: wild-type LKB1 co-expressed with its coactivating protein STRAD, immunoprecipitated (protein)
chain 1: MEVVDPQQLGMFTEGELMSVGMDTFIHRIDSTEVIYQPRRKRAKLIGKYLMGDLLGEGSYGKVKEVLDSETLCRRAVKILKKKKLRRIPNGEANVKKEIQLLRRLRHKNVIQLVDVLYNEEKQKMYMVMEYCVCGMQEMLDSVPEKRFPVCQAHGYFCQLIDGLEYLHSQGIVHKDIKPGNLLLTTGGTLKISDLGVAEALHPFAADDTCRTSQGSPAFQPPEIANGLDTFSGFKVDIWSAGVTLYNITTGLYPFEGDNIYKLFENIGKGSYAIPGDCGPPLSDLLKGMLEYEPAKRFSIRQIRQHSWFRKKHPPAEAPVPIPPSPDTKDRWRSMTVVPYLEDLHGADEDEDLFDIEDDIIYTQDFTVPGQVPEEEASHNGQRRGLPKAVCMNGTEAAQLSTKSRAEGRAPNPARKACSASSKIRRLSACKQQ
chain 2: MSFLVSKPERIRRWVSEKFIVEGLRDLELFGEQPPGDTRRKTNDASSESIASFSKQEVMSSFLPEGGCYELLTVIGKGFEDLMTVNLARYKPTGEYVTVRRINLEACSNEMVTFLQGELHVSKLFNHPNIVPYRATFIADNELWVVTSFMAYGSAKDLICTHFMDGMNELAIAYILQGVLKALDYIHHMGYVHRSVKASHILISVDGKVYLSGLRSNLSMISHGQRQRVVHDFPKYSVKVLPWLSPEVLQQNLQGYDAKSDIYSVGITACELANGHVPFKDMPATQMLLEKLNGTVPCLLDTSTIPAEELTMSPSRSVANSGLSDSLTTSTPRPSNGDSPSHPYHRTFSPHFHHFVEQCLQRNPDARPSASTLLNHSFFKQIKRRASEALPELLRPVTPITNFEGSQSQDHSGIFGLVTNLEELEVDDWEF
modifications: left off: small tags and cut ends
B3: Kinase-inactive LKB1: kinase-dead LKB1 mutant, alone or coexpressed with STRAD (protein)
chain: MEVVDPQQLGMFTEGELMSVGMDTFIHRIDSTEVIYQPRRKRAKLIGKYLMGDLLGEGSYGKVKEVLDSETLCRRAVIILKKKKLRRIPNGEANVKKEIQLLRRLRHKNVIQLVDVLYNEEKQKMYMVMEYCVCGMQEMLDSVPEKRFPVCQAHGYFCQLIDGLEYLHSQGIVHKDIKPGNLLLTTGGTLKISDLGVAEALHPFAADDTCRTSQGSPAFQPPEIANGLDTFSGFKVDIWSAGVTLYNITTGLYPFEGDNIYKLFENIGKGSYAIPGDCGPPLSDLLKGMLEYEPAKRFSIRQIRQHSWFRKKHPPAEAPVPIPPSPDTKDRWRSMTVVPYLEDLHGADEDEDLFDIEDDIIYTQDFTVPGQVPEEEASHNGQRRGLPKAVCMNGTEAAQLSTKSRAEGRAPNPARKACSASSKIRRLSACKQQ
modifications: left off: small tags and cut ends
notes: kinase-dead LKB1 mutant, alone or coexpressed with STRAD

molecular target: T1, MBP-AMPK (Rattus norvegicus, UniProt P54645); test: AMPK kinase activity on SAMS peptide after in vitro phosphorylation by LKB1; type: biochemical; settings: in vitro phosphorylation of bacterial MBP-AMPK, SAMS peptide substrate
T1 construct: MBP-AMPKa (1-312) bacterial fusion protein
T1 sequence (P54645 13-323): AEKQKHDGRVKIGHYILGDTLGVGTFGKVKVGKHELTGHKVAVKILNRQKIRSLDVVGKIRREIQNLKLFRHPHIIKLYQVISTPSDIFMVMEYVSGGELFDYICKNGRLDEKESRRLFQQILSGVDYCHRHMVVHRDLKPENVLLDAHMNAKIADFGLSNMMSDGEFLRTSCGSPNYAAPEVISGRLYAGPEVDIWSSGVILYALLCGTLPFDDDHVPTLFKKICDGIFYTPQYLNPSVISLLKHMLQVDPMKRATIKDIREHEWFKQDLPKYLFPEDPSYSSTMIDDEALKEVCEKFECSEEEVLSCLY
Description: FIG. 2a: Lineup of known LKB1 in vitro phosphorylation sites with sites of phosphorylation in human […] and its yeast homologue SNF1p. AMPKα1 Thr 172 (SEQ ID NO:1); SNF1p S.c. Thr 210 (SEQ ID NO:2); STRAD Thr 329 (SEQ ID NO:3); STRAD Thr 419 (SEQ ID NO:4); LKB1 auto Thr 185 (SEQ ID NO:5). FIG. 2b. HT1080 cells were transfected with wild-type or kinase dead (K78I) LKB1 with or without its coactivating protein STRAD. As indicated, LKB1 immunoprecipitations (IPs) were tested for their ability to transphosphorylate bacterial MBP-AMPKα in an in vitro kinase assay. Parallel in vitro kinase assays were performed using ^32P γ-ATP followed by autoradiography or cold ATP followed by immunoblotting for phospho-Thr172 AMPK and the indicated proteins. Wild-type LKB1 IPs were run in duplicate as shown. MBP-AMPK was also tested alone as indicated. Results are typical of 3 separate experiments. FIG. 2c: LKB1 phosphorylation of MBP-AMPK activates its kinase activity towards a peptide substrate (SAMS). LKB1 immunoprecipitates (as in FIG. 2a) were used to phosphorylate MBP-AMPK in vitro and then MBP-AMPK was removed and tested for its ability to trans-phosphorylate the SAMS peptide in the presence of ^32P γ-ATP. Results were performed in two separate experiments in triplicate. LKB1 alone was incapable of detectably phosphorylating the SAMS peptide, and equivalent levels of LKB1 and MBP-AMPK were used in each reaction (data not shown). Samples without LKB1, without SAMS peptide, or without MBP-AMPK all gave similar levels of background (data not shown).
Kinase Assays and Cellular Analysis: AMPK kinase activity was measured using the SAMS peptide as previously described (7). LKB1 phosphorylation of AMPK was carried out in kinase buffer (50 mM Tris pH 7.5, 10 mM MgCl2, 1 mM DTT, 100 μM ATP) for 20 mins at 30° C. For immunopreciptations of active LKB1 kinase, Flag-tagged LKB1 was co-transfected with an equimolar amount of STRAD expression plasmid into HT1080 cells and immunoprecipitated using M2-agarose (Sigma) 24 h post-transfection in NP40 lysis buffer26. […]

| Molecule | induced AMPK kinase activity |
| --- | --- |
| B1 | 27 fold |
| B2 | 50 fold |
| B3 | unable to activate AMPK |
